Laboratory results taken from article PMC11774035.

Molecular target: T1, His6-Lrp (Klebsiella oxytoca MIT 09-7231) (UniProt A0A181XPK7)
T1 sequence: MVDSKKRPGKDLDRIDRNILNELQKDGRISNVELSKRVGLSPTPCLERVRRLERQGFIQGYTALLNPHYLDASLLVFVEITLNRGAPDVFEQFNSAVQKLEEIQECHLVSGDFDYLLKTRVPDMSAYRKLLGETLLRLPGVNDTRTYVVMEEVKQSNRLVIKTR
Test: EMSA
Conditions: 40 mM HEPES ([…], room temperature 20 min

Sequence	binding
TCTCTCACTCGAAATTTAACAGGTTTTTCGTTTGTTTTTTAACAAAAAAGCGATGAGAAAGTGCTATTCCTTGTCTGTTTACTGGACATGAAAGACGATACGGTTTGCACAAATATTGCACGCCAATGAGTGCATTATGTCAATCAAAA (double strand) [aroX-npsA fragment 1]	no binding
TCTCTCCTGGAGAATTAGGAACGTTCACACGCATAAAATCTTCTCTTGAAGAAGAAATTAAAGATCTAAAGAAATGCCGCCAGCTTACCGTGAGATGCTTCTAAGAAAACACCGCAAAACAAGCAACATATAAGCAACACAAACATAACT (double strand) [aroX-npsA fragment 3]	no binding
